Test results: patent US20110250203A1 (SYMPHOGEN A S, published 2011)
Positions count from the first letter of the chain named.

T1: Recombinant human CD5 extracellular domain (CD5-ECD) (human, UniProt P06127 25-372)
T1 construct: In-house protein made as CD5-ECD - TEV site - hGH fusion; CD5-ECD isolated by TEV cleavage and nickel column; also called CD5-ECD protein
T1 sequence: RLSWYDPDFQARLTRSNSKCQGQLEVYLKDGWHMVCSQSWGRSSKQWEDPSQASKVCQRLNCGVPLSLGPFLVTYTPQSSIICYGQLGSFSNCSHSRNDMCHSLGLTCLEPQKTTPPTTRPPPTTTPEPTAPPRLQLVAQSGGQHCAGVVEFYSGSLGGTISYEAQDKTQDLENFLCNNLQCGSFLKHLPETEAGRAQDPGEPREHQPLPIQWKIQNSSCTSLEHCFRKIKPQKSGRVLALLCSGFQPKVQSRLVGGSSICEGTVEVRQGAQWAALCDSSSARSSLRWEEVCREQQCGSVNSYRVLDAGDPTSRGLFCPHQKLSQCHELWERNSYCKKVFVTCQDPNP

B1: Anti-CD5 antibody 17 (7H7) (antibody, human IgG1, V domains shown)
VH: EVQLVESGPGLVQPSQSLSITCTVSGFSLTNYDVHWVRQSPGKGLEWLGVIWNYGNTDYNAAFISRLSIRKDSSKSQVFFTMSSLQTPDTAIYYCARNHGDGYYNWYFDV
VL: NIVLTQSPSSLSESLGGKVTITCKASQDINKYIAWYQYKPGKGPRLLIHYTSTLQPGIPSRFSGSGSGRDYSFSISNLEPEDIATYYCLQYDNLWT
notes: also called Ab17; Clone 17
B2: Anti-CD5 antibody 23 (2H11) (antibody, V domains shown)
VH: EVQLQQSGPELVKPGTSVKISCKASGYTFTDYYINWVKQKPGQGLEWIGWIYPGGGNTRYIERFKGKATLTVDTSSSTAYMQLSSLTSEDTAVYFCARNGYWYFDV
VL: DIVLTQSPSSLTVTAGEKVTMSCKSSQSLLNQKNYLTWYQQKTGQPPKLLIYWASTRESGVPDRFTGSGSGTDFTLTISSVQAEDLAVYYCQNDYDYPYT
notes: also called Ab23; Clone 23
B3: Anti-CD5 antibody 9 (6M4) (antibody, human IgG1, V domains shown)
VH: QVQLKESGPELEKPGASVKISCKASGYSFTAYSMNWVKQNNGMSLEWIGSIDPYYGDTKYAQKFKGKATLTVDKASSTAYLQLKSLTSEDSAVYYCARRMITTGDWYFDV
VL: HIVLTQSPSSLSASLGDRVTISCRASQDISTYLNWYQQKPDGTVKLLIFYTSRLHAGVPSRFSGSGSGTHHSLTISNLEQEDIATYFCQQGNSLPFT
notes: also called Ab9; Clone 9
B4: Anti-CD5 antibody 34 (5O24) (antibody, human IgG1, V domains shown)
VH: EVKLVESGAELVRSGASVKLSCAASGFNIKDYYIHWVKQRPEQGLEWIGWIDPENGRTEYAPKFQGKATMTADTSSNTAYLQLSSLTSEDTAVYYCNNGNYVRHYYFDY
VL: DVVLTQSPAILSASPGEKVTMTCRAISSVSYMHWYQQKPGSSPKPWIYATSNLASGVPARFSGSGSGTSYSLTISRVEAEDAATYYCQQWSSNPRT
notes: also called Ab34; Clone 34
B5: Anti-CD5 antibody 14 (7P9) (antibody, human IgG1, V domains shown)
VH: EVQLKESGAELVKPGASVKLSCTASGFNIKDTYMHWVKQRPEQGLEWIGRIDPANGNTKYDPKFQGKATITADTSSNTAYLQLSSLTSEDTAVYYCAREENYYGTYYFDY
VL: NIVLTQSPASLAASVGETVTITCRASENIYYNLAWYQQKQGKSPQLLIYNANSLEDGVPSRFSGSGSGTQYSMKINSMQPEDTATYFCKQVYDVPFT
notes: also called Ab14; Clone 14
B6: Anti-CD5 antibody 29 (8E15) (antibody, human IgG1, V domains shown)
VH: QVQLKESGADLVKPGASVKLSCTASGFNIKDTYMNWVKERPEQGLEWIGRIDPANGNTKYDPKFQGKATITADTSSNTGYLQLSSLTSEDTAVYYCASYDPDY
VL: B5 VL with N1D, D56G, V91A, F96W
notes: also called Ab29; Clone 29
B7: Anti-CD5 antibody 15 (8E24) (antibody, human IgG1, V domains shown)
VH: QVTLKESGAELVRPGASVKLSCKASGYSFTSYWMNWVKQRPGQGLEWIGMIHPSDSETRLNQKFKDKATLTVDKSSSTAYMQLSSPTSEDSAVYYCARWGDHDDAMDF
VL: DIVLTQSPASLSASVGESVTITCRPSENIYGYFAWYQQRQGKSPQLLVYNAKTLAEGVPSRFSGSGSGTHFSLKINSLQPEDFGTYYCQHHYGTPFT
notes: also called Ab15; Clone 15
B8: Anti-CD5 antibody 31 (3P16) (antibody, human IgG1, V domains shown)
VH: EVQLKESGPELKKPGETVKISCMTSGYMFTNHGMNWVKQAPGKGLKWMGWINTYTGEPTYGDGFKGRFVFSLETSASTAYLQINNLKNEDTATYFCARRVATYFDV
VL: NIVLTQSPAILSVSPGERVSFSCRASQRIGTSMNWYQQRTNGSPRLLIKSASESISGIPSRFSGSGSGTDFTLSINSVESDDVADYYCQQSNSWPLT
notes: also called Ab31; Clone 31
B9: Anti-CD5 antibody 32 (4F3) (antibody, human IgG1, V domains shown)
VH: EVKLVESGPELKKPGETVKISCKASGYMFTNYGMNWVKQAPGKGLKWMGWINTYTGEPTYVEDFKGRFAFSLETSANTAYLQINNLKNEDTATYFCTRRSHITLDY
VL: B8 VL with N1D, A9V, F21L, R28S, M33I, N41D, I55M, N76T, D81E, V83I
notes: also called Ab32; Clone 32
B10: Anti-CD5 antibody 1 (1D8) (antibody, human IgG1, V domains shown)
VH: EVQLQESGPELVKPEASVKISCKASGYSFTGYTMNWVKQSHGKNLEWIGLINPYNGGTTYNQKFKGKATLTVDTSSSTAFMELLSLTSEDSAVYYCARDYYGSSPDFDY
VL: DIVLTQSTSSLSASLGDRVTINCSASQGISNHLNWFQQKSDGTVKLLIYFTSSLHSGVPSRFSGSGSGTDYSLTISNLEPEDIAAYYCQQYSNLPYT
notes: also called Ab1; Clone 1
B11: Anti-CD5 antibody 11 (4E24) (antibody, human IgG1, V domains shown)
VH: EVQLKESGAELVRPGGSVKISCKGSGYTFTNFAIHWVKQSHIKTLEWIGLISTSSGDVSYNQKFKDKATMTVDKSSSTAYMELARLTSEDSAIYYCARHYGANNYFDY
VL: EIVLTQSPTIMSASPGEQVTMTCRTNSSVSSSYLHWYQQKSGASPKLWIYGTSNLASGVPTRFSGSGSGTSYSLTISSVEAGDAATYFCQQYSGYPLT
notes: also called Ab11; Clone 11
B12: Anti-CD5 antibody 12 (4F10) (antibody, human IgG1, V domains shown)
VH: B11 VH with K5Q, G16V, I42A, T44S, T53S, S54N, D66G, N103H
VL: B11 VL with E1D, T9A, T25A, N26T, V29I, G82E, F88Y, G94D
notes: also called Ab12; Clone 12
B13: Anti-CD5 antibody 18 (1E7) (antibody, human IgG1, V domains shown)
VH: QVQLKESGGGLVQPGGSLKLSCAASGFTFSNYGMSWVRQIPDKRLELVAAINSNGDITYDPDSVKGRFTISRDNANNSLFLQMRSLKSEDTAMYYCARGTAWFTYWGQGTLVT
VL: DIVLTQSPASLSASVGETVIITCRASENIYSYLVWYQQKQGKSPQLLVYNAKTLAEGVPSRFSGSGSGTQFSLKINSLQSEDFGSYSCQHHYGYPYT
notes: also called Ab18; Clone 18
B14: Anti-CD5 antibody 8 (8G8) (antibody, human IgG1, V domains shown)
VH: QVQLKESGPELEKPGASVRISCKASGYSFTAYNINWVTQRDGKSLEWIGSIDPYYGDTKYNQKFKDKATLTVDKSSSTAHMQVKSLTSEDSAIYYCARRMITMGDWYFDV
VL: EIVLTQSPSSLSASLGDRVTISCRASQDISNYLNWYQRKPDGTVKLLIYYTSRLQSGVPSRFSGSGSGSEYSLTISNLDQEDIATYFCQQGDALPWT
notes: also called Ab8; Clone 8

Target: T1, Recombinant human CD5 extracellular …
Experiment: SPR (Biacore 2000), antibody captured by anti-human Fc, CD5-ECD in solution, 1:1 fit;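 note: CM5 chip, binding curves at four CD5-ECD concentrations fitted globally, with the signal of a non-CD5-binding control antibody subtracted as reference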
Procedure: SPR analysis was performed on a Biacore 2000 machine containing four flow cells. A CM5 Biacore chip was conjugated with 8.000 Resonance units (Ru) polyclonal anti-human IgG Fc-specific antibody to flow cells 1-4 according to the manufacturer's instructions. Each anti-CD5 antibody was determined for binding to four different concentrations of CD5-ECD (concentrations for the four cycles are shown below) before the affinity was calculated. The non-CD5 binding antibody, Erbitux served as a negative control and was subtracted from the values obtained with the anti-CD5 specific antibodies. […] Subsequently, all flow cells were washed and after waiting 500 s, 250 μl of CD5-ECD 100 nM or 200 nM (Cycle 1) was injected in Flow cells 1-4. After waiting 1000 s, 30 μl H3PO4 was injected using a flow rate of 60 μl/min. The antibody/antigen complex was then stripped with a low pH acid wash (30 sec. contact time with 100 mM H3PO4). […] Four new cycles were then repeated until all the anti-CD5 antibody clones were tested for binding to CD5 in four different concentrations. The association rate constant (ka) and dissociation constant (kd) were evaluated globally by fitting the four binding curves to predefined 1:1 (Langmuir) association and dissociation models with BIAevaluation 4.1 software (Biacore), Table 13.

Row | Binder | Kd [nM] | koff [s⁻¹] | kon [M⁻¹ s⁻¹]
1 | B1 | 0.164 | 8.45e-05 | 515000
2 | B2 | 4.79 | 0.000105 | 21900
3 | B3 | 4.35 | 6.17e-05 | 14200
4 | B4 | 61.3 | 0.00084 | 13700
5 | B5 | 5.6 | 0.0018 | 321000
6 | B6 | 2.09 | 0.00137 | 655000
7 | B7 | 23.4 | 0.00127 | 54400
8 | B8 | 8.85 | 0.000803 | 90700
9 | B9 | 0.903 | 0.000116 | 128000
10 | B10 | 5.19 | 0.000557 | 107000
11 | B11 | 0.315 | 2.2e-05 | 69900
12 | B12 | 1.18 | 0.000115 | 97000
13 | B13 | 0.205 | 3.27e-05 | 160000
14 | B14 | 0.37 | 9.81e-06 | 26500
